Measurements taken from US20090281024A1.

Assays:
[1] = target: MAT CR12 (matriptase CR pair 1-2) (human) (UniProt Q9Y5Y6); experiment: relative binding signal under isomolar conditions on MAT CR12 (heading of the figure); solid-phase binding assay
[2] = target: LRP2 CR89 Y1042W V1047D (human) (UniProt P98164); experiment: solid-phase assay, coated CR protein
[3] = target: LRP2 CR89 Y1042W V1047D R1088D (human) (UniProt P98164); experiment: solid-phase assay, coated CR protein

Sequence of RAP d3 (wild-type third domain of the receptor-associated protein) (P30533 235-353): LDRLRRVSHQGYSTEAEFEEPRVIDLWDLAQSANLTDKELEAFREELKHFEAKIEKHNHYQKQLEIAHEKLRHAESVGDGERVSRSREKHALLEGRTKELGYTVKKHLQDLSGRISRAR
Sequence of MAT CR12 (matriptase CR pair 1-2) (human) (Q9Y5Y6 452-524 limits assumed): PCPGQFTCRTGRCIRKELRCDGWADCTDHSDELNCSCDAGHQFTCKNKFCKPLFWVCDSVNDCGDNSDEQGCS
Sequence of LRP2 CR89 Y1042W V1047D (human) (P98164 1022-1105 Y1043W/V1048D limits assumed): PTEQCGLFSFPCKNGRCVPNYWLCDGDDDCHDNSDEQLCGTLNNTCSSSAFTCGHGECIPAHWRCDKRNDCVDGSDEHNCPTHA

Substance	fnctn (relative binding signal under isomolar conditions) [1]	% max bind [2]	% max bind [3]
MatRAP1 N-42 (from UniProt P30533 277-353) (designed binder)	0.65		
RAP d3 (wild-type third domain of the receptor-associated protein) (from UniProt P30533 235-353) (ligand)		11%	15%
